Results on two substances are retold here after paper doi:10.1101/2023.07.25.550441.

In general, Kd refers to the free concentration of one partner at which half of the binding sites on the other are occupied at equilibrium, for simple one-to-one binding. A low value points to a tighter complex.

Experiment in all cases: SPR
In general terms: Surface plasmon resonance follows binding to a sensor surface in real time, without labels.

The target in assay [1] is Asgard UEV (the UEV of UEV-Vps23 and UEV-Vps28), as tested against Asgard ubiquitin.
The target in assay [2] is Helarchaeia full-length RING E3 (Helarchaeota).
Assay [3] addresses Helarchaeia RING E3 (N-loopΔ), truncated E3 that lacks the N-loop (residues 1-19) (Helarchaeota).

With “Asgard ubiquitin, as tested against Asgard UEV”, in assay [1], the Kd was 0.674 to 7.15 µM.
Take “Helarchaeia UEV (residues 1-132) of UEV-Vps23 (domain or fragment)”: the Kd in assay [2] was 257 µM; in assay [3], 8140 µM.
